The target in experiment [1] is T1, HA-tagged LRP6 on LRP6-transduced HT1080 cells (UniProt O75581 20-1613, limits assumed).
T1 construct: whole, on cells; the only LRP6 cDNA named in the materials is human; also called mature LRP6 at the cell surface; cell surface LRP6; not shown: HA tag
Briefly: binding of truncated Mesd mutant to cell surface LRP6.

In experiment [2] the target is T1, HA-tagged LRP6 on LRP6-transduced …. Description: conditioned medium on LRP6-transduced HT1080 cells, anti-Myc immunofluorescence. The method, then:
To facilitate immunodetection, a c-Myc epitope was included at the C-terminus. The integrity of the subcloned DNA sequence was confirmed by DNA sequencing. Human DKK1-conditioned media were produced by transient transfection of HEK293 cells with pcDNADKK1-Myc in serum-free medium, and allowed to bind to LRP6-transduced HT1080 cells and control cells at room temperature for 60 minutes in the absence or presence of 1 μM Mesd. Cells were then fixed in 4% paraformaldehyde, labeled with anti-Myc monoclonal antibody and detected with Alexa-488 goat anti-mouse IgG. The immunofluorescence was detected by a laser-scanning confocal microscope (Olympus Fluoview 500).
RAP is a receptor antagonist for members of the LDLR family, and is able to inhibit the binding of most known ligands of the LDLR family members. DKK1 is an LRP6-specific ligand and antagonist. […] In these experiments, Serum-free conditioned medium was harvested from HEK293 cells transiently transfected with cDNA for human Myc-DKK1 and allowed to bind to LRP6-transduced HT1080 cells (B,C) and control cells (A) in the absence (A,B) or presence (C) of 1 μM Mesd. Cell-surface-bound Myc-tagged DKK proteins were fixed and detected by immunofluorescence staining with anti-Myc antibody. (D) DKK1 binding to cell surface LRP6 is inhibited by Mesd. […] (E) LRP6-mediated DKK1 degradation is inhibited by Mesd. […]

Experiment [3] shares this target. Description: 125I-DKK1 (5 nM) binding to LRP6-transduced HT1080 cells, 3 h at 4 C. The procedure:
RAP is a receptor antagonist for members of the LDLR family, and is able to inhibit the binding of most known ligands of the LDLR family members. DKK1 is an LRP6-specific ligand and antagonist. […] In these experiments, Serum-free conditioned medium was harvested from HEK293 cells transiently transfected with cDNA for human Myc-DKK1 and allowed to bind to LRP6-transduced HT1080 cells (B,C) and control cells (A) in the absence (A,B) or presence (C) of 1 μM Mesd. Cell-surface-bound Myc-tagged DKK proteins were fixed and detected by immunofluorescence staining with anti-Myc antibody. (D) DKK1 binding to cell surface LRP6 is inhibited by Mesd. […] (E) LRP6-mediated DKK1 degradation is inhibited by Mesd. LRP6-mediated […] (5 nM) degradation was carried out for 4 hours at 37° C. in the absence or presence of 500 nM RAP or 500 nM Mesd. Values are the means of triple determinations with the s.d. indicated by error bars. Bar, 10 μm. As expected, Myc-tagged DKK1 binds to LRP6 cells (FIG. 9B) but not to the control cells (FIG. 9A).

Experiment [4] concerns the target LRP6 (as used in Example 11) (UniProt O75581 20-1613, limits assumed). Description: competition with 125I-DKK1 for LRP6.
In experiment [5] the target is T1, HA-tagged LRP6 on LRP6-transduced …. Briefly: 125I-Mesd saturation binding to LRP6-transduced HT1080 cells, 3 h at 4 C, Scatchard analysis. The method, then:
To examine whether Mesd binds with high affinity to most members of the LDLR family at the cell surface, we performed cell surface ligand binding experiments with cells stably transduced with LRP6 cDNA. Human HT1080 cells, which express undetectable levels of LRP6, were transduced with a viral vector alone (pLNCX2) or with vector containing LRP6 cDNA (Li, Y., Oncogene 23: 9129-9135, 2004) and used for ¹²⁵I-Mesd binding (FIG. 1A). ¹²⁵I-Mesd (5 nM) reached maximal binding after 2 hours incubation at 4° C. with LRP6-expressing HT1080 cells (FIG. 1A). Inclusion of excess unlabeled Mesd (500 nM) completely eliminated this binding.
(A) Time course of ¹²⁵I-Mesd (5 nM) binding to LRP6-transduced HT1080 cells and the control cells. Assay was carried out for the indicated periods at 4° C. in the absence (total) or presence of 500 nM Mesd (non-specific). (B) Saturation binding of ¹²⁵I-Mesd to LRP6-transduced HT1080 cells and the control cells. Assay was carried out at indicated concentrations for 3 hours at 4° C. in the absence (total) or presence (non-specific) of 500 nM Mesd. (C) Scatchard plots of data in B. All values are the average of triple determinations with the s.d. indicated by error bars.

Experiment [6] concerns the target LRP5 (as used in Example 11) (UniProt O75197 32-1615, limits assumed). Briefly: competition with 125I-Mesd for LRP5.
In experiment [7] the target is T1, HA-tagged LRP6 on LRP6-transduced …. Description: 125I-Mesd (150-195) (5 nM) binding to LRP6-transduced HT1080 cells, 3 h at 4 C. The method, then: In this example, a truncated Mesd mutant containing the last 45 amino acids of C-terminal region was generated (FIG. 3A) and its binding affinity for LRP6 was then analyzed. […] (A) Binding analyses of ¹²⁵I-Mesd and its mutant Mesd (150-195) (5 nM) to LRP6-transduced HT1080 cells and control cells. (B) Binding analyses of ¹²⁵I-Mesd and its mutant Mesd (150-195) (5 nM) to LRP6-transduced HT1080 cells. Assays were carried out for 3 hours at 4° C. in the absence or presence of 500 nM Mesd or its mutant. Values are the means of triple determinations with the s.d. indicated by error bars.

No end group written: not given here.

As usually defined, the Kd is the equilibrium constant for the complex coming apart.

T1 sequence (O75581 20-1613 limits assumed): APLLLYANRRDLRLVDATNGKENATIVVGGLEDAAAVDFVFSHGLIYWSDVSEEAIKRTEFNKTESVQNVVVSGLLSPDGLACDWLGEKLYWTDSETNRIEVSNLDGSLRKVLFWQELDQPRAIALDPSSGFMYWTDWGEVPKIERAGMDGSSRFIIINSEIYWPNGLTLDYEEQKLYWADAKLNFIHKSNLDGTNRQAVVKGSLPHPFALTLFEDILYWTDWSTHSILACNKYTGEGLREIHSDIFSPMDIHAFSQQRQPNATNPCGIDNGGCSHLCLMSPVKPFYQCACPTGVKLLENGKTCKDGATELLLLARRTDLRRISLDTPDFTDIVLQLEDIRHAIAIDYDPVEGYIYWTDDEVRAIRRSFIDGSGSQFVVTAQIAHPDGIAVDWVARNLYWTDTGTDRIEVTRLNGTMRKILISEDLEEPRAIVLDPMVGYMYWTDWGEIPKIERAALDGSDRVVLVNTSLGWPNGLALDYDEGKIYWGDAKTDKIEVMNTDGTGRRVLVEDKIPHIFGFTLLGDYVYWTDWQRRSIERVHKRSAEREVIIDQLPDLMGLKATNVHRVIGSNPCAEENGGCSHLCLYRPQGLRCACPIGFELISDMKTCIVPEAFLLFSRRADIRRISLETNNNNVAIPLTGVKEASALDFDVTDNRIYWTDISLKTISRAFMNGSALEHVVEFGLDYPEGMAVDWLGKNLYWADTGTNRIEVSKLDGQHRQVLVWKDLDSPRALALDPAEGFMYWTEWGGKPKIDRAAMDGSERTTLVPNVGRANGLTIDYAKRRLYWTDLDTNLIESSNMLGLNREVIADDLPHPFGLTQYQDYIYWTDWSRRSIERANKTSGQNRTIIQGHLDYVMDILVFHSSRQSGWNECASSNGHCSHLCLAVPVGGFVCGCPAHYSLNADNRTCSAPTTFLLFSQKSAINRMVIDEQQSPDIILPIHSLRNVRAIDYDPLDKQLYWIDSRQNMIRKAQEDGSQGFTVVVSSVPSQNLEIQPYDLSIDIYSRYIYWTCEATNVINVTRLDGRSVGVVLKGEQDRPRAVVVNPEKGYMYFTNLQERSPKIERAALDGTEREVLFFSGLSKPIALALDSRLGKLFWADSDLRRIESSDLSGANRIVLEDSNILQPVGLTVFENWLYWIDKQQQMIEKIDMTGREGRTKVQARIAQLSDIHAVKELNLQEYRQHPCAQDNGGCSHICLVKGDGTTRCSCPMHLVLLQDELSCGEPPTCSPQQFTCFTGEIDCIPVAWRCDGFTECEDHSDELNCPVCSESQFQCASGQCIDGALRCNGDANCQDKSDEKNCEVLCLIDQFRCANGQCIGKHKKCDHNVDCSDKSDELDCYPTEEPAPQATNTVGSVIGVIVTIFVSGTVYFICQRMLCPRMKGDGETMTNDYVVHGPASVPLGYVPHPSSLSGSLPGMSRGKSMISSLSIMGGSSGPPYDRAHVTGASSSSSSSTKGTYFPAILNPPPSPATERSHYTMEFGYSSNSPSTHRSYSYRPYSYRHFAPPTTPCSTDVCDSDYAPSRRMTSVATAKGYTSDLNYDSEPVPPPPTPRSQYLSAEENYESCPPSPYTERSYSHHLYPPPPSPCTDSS
LRP6 (as used in Example 11), sequence (O75581 20-1613 limits assumed): as above
LRP5 (as used in Example 11), sequence (O75197 32-1615 limits assumed): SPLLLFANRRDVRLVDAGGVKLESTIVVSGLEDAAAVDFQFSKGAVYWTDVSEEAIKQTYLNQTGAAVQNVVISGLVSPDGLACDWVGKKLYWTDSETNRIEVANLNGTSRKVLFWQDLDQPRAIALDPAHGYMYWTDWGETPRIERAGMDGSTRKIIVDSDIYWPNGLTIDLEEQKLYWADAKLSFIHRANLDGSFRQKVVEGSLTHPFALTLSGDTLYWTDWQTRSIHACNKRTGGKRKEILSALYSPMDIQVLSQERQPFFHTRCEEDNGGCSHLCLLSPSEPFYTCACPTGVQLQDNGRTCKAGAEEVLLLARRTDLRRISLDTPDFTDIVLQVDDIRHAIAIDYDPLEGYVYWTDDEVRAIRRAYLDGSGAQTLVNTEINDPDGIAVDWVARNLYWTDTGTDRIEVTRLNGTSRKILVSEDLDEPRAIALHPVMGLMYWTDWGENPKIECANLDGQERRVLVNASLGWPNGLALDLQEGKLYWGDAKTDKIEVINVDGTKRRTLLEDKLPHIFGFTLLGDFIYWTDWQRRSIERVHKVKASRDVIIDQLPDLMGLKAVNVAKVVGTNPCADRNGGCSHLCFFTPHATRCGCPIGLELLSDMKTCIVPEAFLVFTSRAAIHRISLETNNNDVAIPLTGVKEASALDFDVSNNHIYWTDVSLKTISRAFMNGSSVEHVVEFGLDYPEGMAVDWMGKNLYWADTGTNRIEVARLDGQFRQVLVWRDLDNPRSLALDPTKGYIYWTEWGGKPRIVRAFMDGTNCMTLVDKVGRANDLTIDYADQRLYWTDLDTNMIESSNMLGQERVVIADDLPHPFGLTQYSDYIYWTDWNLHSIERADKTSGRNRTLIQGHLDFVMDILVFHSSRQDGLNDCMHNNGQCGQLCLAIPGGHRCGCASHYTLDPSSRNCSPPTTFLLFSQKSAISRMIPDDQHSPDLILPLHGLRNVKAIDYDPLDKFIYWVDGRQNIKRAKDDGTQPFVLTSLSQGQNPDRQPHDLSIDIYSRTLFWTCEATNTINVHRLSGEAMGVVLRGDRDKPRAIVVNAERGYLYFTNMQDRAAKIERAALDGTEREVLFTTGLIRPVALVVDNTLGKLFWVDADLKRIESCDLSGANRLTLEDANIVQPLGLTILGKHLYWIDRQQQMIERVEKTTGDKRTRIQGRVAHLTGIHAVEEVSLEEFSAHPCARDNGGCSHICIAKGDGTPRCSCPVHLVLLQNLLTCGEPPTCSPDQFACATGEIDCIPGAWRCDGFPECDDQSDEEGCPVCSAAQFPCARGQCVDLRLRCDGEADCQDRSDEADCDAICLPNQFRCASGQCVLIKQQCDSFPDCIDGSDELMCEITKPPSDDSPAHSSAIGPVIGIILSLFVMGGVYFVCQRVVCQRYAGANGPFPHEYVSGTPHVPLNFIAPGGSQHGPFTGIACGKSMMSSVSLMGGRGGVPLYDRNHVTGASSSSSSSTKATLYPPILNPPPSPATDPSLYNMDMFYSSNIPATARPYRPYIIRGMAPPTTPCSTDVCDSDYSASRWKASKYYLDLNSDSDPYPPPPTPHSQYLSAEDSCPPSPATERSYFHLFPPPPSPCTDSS

B1: Mesd (12-195) (other)
chain: RKKKDIRDYNDADMARLLEQWEKDDDIEEGDLPEHKRPSAPIDFSKLDPGKPESILKMTKKGKTLMMFVTVSGNPTEKETEEITSLWQGSLFNANYDVQRFIVGSDRAIFMLRDGSYAWEIKDFLVSQDRCAEVTLEGQMYPGKGGGSKEKNKTKPEKAKKKEGDRKPRASKEDNRAGSRREDL
notes: also called truncated Mesd mutant lacking the N-terminal region; not shown: N-terminal polyhistidine tail from pET-30a(+)
Turning to B1, the binding result in experiment [1] is given as “binds”.

B2: human Myc-tagged DKK1 (conditioned medium of HEK293 cells) (ligand, UniProt O94907 32-266, looked up, not shown: small tags and cut ends)
chain: TLNSVLNSNAIKNLPPPLGGAAGHPGSAVSAAPGILYPGGNKYQTIDNYQPYPCAEDEECGTDEYCASPTRGGDAGVQICLACRKRRKRCMRHAMCCPGNYCKNGICVSSDQNHFRGEIEETITESFGNDHSTLDGYSRRTTLSSKMYHTKGQEGSVCLRSSDCASGLCCARHFWSKICKPVLKEGQVCTKHRRKGSHGLEIFQRCYCGEGLSCRIQKDHHQASNSSRLHTCQRH
notes: also called Myc-DKK1; DKK1-Myc
On to B2, for which the binding result in experiment [2] is “binds”.

B3: human recombinant DKK1 protein (ligand, UniProt O94907 32-266, looked up)
chain: B2 chain
modifications: 125I-labelled (IODO-GEN method)
notes: Bought
Take B3: the binding result in experiment [3] is on record as “binds”.

B4: Mesd (12-155) (other)
chain: RKKKDIRDYNDADMARLLEQWEKDDDIEEGDLPEHKRPSAPIDFSKLDPGKPESILKMTKKGKTLMMFVTVSGNPTEKETEEITSLWQGSLFNANYDVQRFIVGSDRAIFMLRDGSYAWEIKDFLVSQDRCAEVTLEGQMYPGK
notes: also called truncated Mesd mutant lacking both the N-terminal and C-terminal regions; not shown: N-terminal polyhistidine tail from pET-30a(+)
In the case of B4, the binding result in experiment [1] is “no binding”.

B5: recombinant mouse Mesd protein (wild type) (other, not shown: small tags and cut ends)
chain: ADTPGEATPPPRKKKDIRDYNDADMARLLEQWEKDDDIEEGDLPEHKRPSAPIDFSKLDPGKPESILKMTKKGKTLMMFVTVSGNPTEKETEEITSLWQGSLFNANYDVQRFIVGSDRAIFMLRDGSYAWEIKDFLVSQDRCAEVTLEGQMYPGKGGGSKEKNKTKPEKAKKKEGDRKPRASKEDNRAGSRREDL
modifications: 125I-labelled (IODO-GEN method) where used as tracer
notes: Expressed in E. coli BL21(DE3) from pET-30a(+); 'All the recombinant Mesd proteins lack the Mesd signal peptide'; also called Mesd polypeptide
Turning to B5, the “fold reduction of 125I-DKK1 binding” value in experiment [4] is greater than 2 fold. Moreover, in experiment [5], the Kd was roughly 3.3 nM. Further, in experiment [6], the “fold reduction of 125I-Mesd binding” value is roughly 10 fold.
As to KGGGSKEKNKTKPEKAKKKEGDPKPRASKEDNRAGSR (also called the oligopeptide) [Mesd oligopeptide KGGGSKEKNKTKPEKAKKKEGDPKPRASKEDNRAGSR], the “fold reduction of 125I-DKK1 binding” value in experiment [4] was greater than 2 fold. For the same molecule, in experiment [6], the “fold reduction of 125I-Mesd binding” value is roughly 10 fold.

B6: Mesd (150-195) (peptide)
chain: QMYPGKGGGSKEKNKTKPEKAKKKEGDPKPRASKEDNRAGSRREDL
modifications: also: 125I-labelled where used as tracer
notes: also called truncated Mesd mutant containing the last 45 amino acids of C-terminal region; Mesd (150-195) peptide; not shown: N-terminal polyhistidine tail from pET-30a(+) if made like the other recombinant Mesd mutants
In the case of B6, the binding result in experiment [7] was “binds”.

The values above are taken from US20100120685A1 (WASHINGTON UNIVERSITY, published 2010).
